Values joined by “and” are separate entries in the source; they are usually repeats but may differ in a detail not shown here. Equal entries are not always repeated. Where only a bound is given, the exact number is not on record here.

In general, Kd refers to the free concentration of one partner at which half of the binding sites on the other are occupied at equilibrium, for simple one-to-one binding. High values mean a looser complex, low ones a tighter complex. One may read the stoichiometry N as a count of units in the complex or per binding partner.

In series [1] the target is Bpa 31-146 (Mycobacterium tuberculosis) (UniProt P9WKX3). The experiment in a line: NMR CPMG relaxation dispersion.
For series [2] the target is unchanged. The experiment in a line: NMR titration.
The series “native MS” concerns the molecule itself. The experiment in a line: native MS.
Series [3] concerns the molecule itself. As to the kind of experiment: NMR pulsed-field gradient diffusion.
The series “methyl-TROSY NMR” deals with the molecule itself. The experiment in a line: methyl-TROSY NMR.

With “DNA-binding domain of human telomeric repeat-binding factor 1 (residues 378-430) (domain or fragment)”, in series [1], the exchange rate between Bpa free and bound with hTRF1 (CPMG) is above 1500 s⁻¹. Besides, in series [2], the equilibrium dissociation constant (Kd) is < 0.2 µM and 1.5 µM; the stoichiometry N (hTRF1 molecules per Bpa dodecamer) was determined as 3.

B1: wild-type (WT) Mycobacterium tuberculosis bacterial proteasome activator Bpa (Rv3780) (natural protein)
chain: MVIGLSTGSDDDDVEVIGGVDPRLIAVQENDSDESSLTDLVEQPAKVMRIGTMIKQLLEEVRAAPLDEASRNRLRDIHATSIRELEDGLAPELREELDRLTLPFNEDAVPSDAELRIAQAQLVGWLEGLFHGIQTALFAQQMAARAQLQQMRQGALPPGVGKSGQHGHGTGQYL
For the molecule B1, the figures for the “stoichiometry N” value (in the series “native MS”; in series [3]) were 2 and 4, respectively.

B2: Bpa 31-146 (domain or fragment)
chain: DSDESSLTDLVEQPAKVMRIGTMIKQLLEEVRAAPLDEASRNRLRDIHATSIRELEDGLAPELREELDRLTLPFNEDAVPSDAELRIAQAQLVGWLEGLFHGIQTALFAQQMAARA
In the case of B2, the “stoichiometry N” value in “methyl-TROSY NMR” came out at 12.

Values taken from paper doi:10.1101/2025.10.01.679806 (bioRxiv, 2025).
